According to the Human Domainome abundance scans (Beltran et al. 2025):
± gives the uncertainty stated by the source.

B1: Gamma-crystallin D, residues 90 to 170; numbered along this chain, P07320 (parent)
chain: IRLYEREDYRGQMIEFTEDCSCLQDRFRFNEIHSLNVLEGSWVLYELSNYRGRQYLLMPGDYRRYQDWGATNARVGSLRRV

Variants of: B1
Assay: abundance fitness (aPCA) (normalised: wild type 0, dead -1); higher = more abundant; growth selection in yeast, the domain comes from the species named
Conditions: Homo sapiens

Point of comparison: S41R, abundance fitness 0.021 ± 0.077. Against it:
- S34A — within error, 0.112 ± 0.077
- S34C — within error, -0.014 ± 0.091
- S34V — lower, -1.08 ± 0.16
- S34E — lower, -0.853 ± 0.19
- S34D — lower, -0.936 ± 0.28
- S34I — lower, -0.84 ± 0.26
- S34G — within error, -0.099 ± 0.045
- S34R — lower, -0.766 ± 0.11
- S34M — lower, -0.689 ± 0.092
- S34P — lower, -1.03 ± 0.11
- S34Y — lower, -0.893 ± 0.19
- S34W — lower, -0.828 ± 0.21
- S34T — lower, -0.924 ± 0.15
- S34H — lower, -0.771 ± 0.23
- G40Y — within error, -0.104 ± 0.33
- G40K — lower, -0.187 ± 0.11
- G40H — within error, 0.132 ± 0.32
- G40F — within error, -0.031 ± 0.17
- G40M — within error, -0.13 ± 0.12
- G40A — within error, -0.014 ± 0.08
- G40T — within error, -0.041 ± 0.11
- G40C — within error, -0.039 ± 0.17
- G40R — lower, -0.142 ± 0.066
- G40P — within error, -0.077 ± 0.099
- G40V — within error, 0.025 ± 0.08
- G40E — within error, 0.076 ± 0.15
- G40S — within error, -0.021 ± 0.083
- G40L — lower, -0.143 ± 0.066
- G40N — lower, -0.228 ± 0.14
- G40I — within error, -0.113 ± 0.11
- G40Q — within error, -0.053 ± 0.059
- G40D — within error, 0.011 ± 0.11
- H33W — within error, 0.02 ± 0.12
- H33P — within error, 0.062 ± 0.092
- H33E — within error, 0.078 ± 0.13
- H33C — within error, -0.01 ± 0.13
- H33Q — within error, 0.04 ± 0.15
- H33N — within error, -0.082 ± 0.16
- H33A — within error, 0.039 ± 0.073
- H33S — within error, 0.118 ± 0.1
- H33G — within error, 0.079 ± 0.076
- H33K — within error, -0.057 ± 0.15
- H33F — within error, -0.023 ± 0.29
- H33V — within error, 0.04 ± 0.059
- H33D — within error, 0.011 ± 0.11
- H33L — within error, -0.024 ± 0.07
- H33I — within error, 0.07 ± 0.13
- H33T — within error, -0.065 ± 0.11
- H33M — within error, 0.05 ± 0.12
- H33R — within error, -0.005 ± 0.083
- S41Y — within error, -0.078 ± 0.098
- S41M — lower, -0.285 ± 0.11
- S41D — within error, -0.007 ± 0.14
- S41E — within error, 0.076 ± 0.12
- S41K — within error, 0.045 ± 0.15
- S41F — lower, -0.384 ± 0.14
- S41N — within error, -0.175 ± 0.23
- S41P — lower, -0.171 ± 0.097
- S41V — within error, -0.138 ± 0.095
- S41G — within error, 0.064 ± 0.062
- S41W — lower, -0.207 ± 0.1
- S41H — within error, -0.006 ± 0.17
- S41L — lower, -0.363 ± 0.1
- S41I — within error, -0.161 ± 0.27
- S41A — lower, -0.222 ± 0.079
- S41Q — within error, 0.022 ± 0.059
- S41T — within error, -0.09 ± 0.088
- N49R — within error, -0.107 ± 0.059
- N49G — within error, -0.074 ± 0.059
- N49T — lower, -0.561 ± 0.19
- N49L — within error, 0.045 ± 0.094
- N49Q — within error, 0.015 ± 0.12
- N49K — within error, -0.086 ± 0.18
- N49I — lower, -0.485 ± 0.21
- N49A — within error, -0.109 ± 0.076
- N49M — within error, 0.008 ± 0.15
- N49S — within error, -0.09 ± 0.082
- N49P — lower, -0.182 ± 0.11
- N49F — within error, -0.135 ± 0.19
- N49E — within error, 0.054 ± 0.11
- N49Y — within error, -0.03 ± 0.19
- V37L — within error, 0.096 ± 0.088
- V37D — within error, 0.165 ± 0.34
- V37Q — lower, -0.306 ± 0.15
- V37G — lower, -0.218 ± 0.076
- V37W — lower, -0.895 ± 0.15
- V37F — within error, 0.159 ± 0.2
- V37P — within error, 0.153 ± 0.099
- V37K — lower, -0.7 ± 0.39
- V37M — lower, -0.338 ± 0.16
- V37E — lower, -1.11 ± 0.46
- V37I — within error, 0.091 ± 0.19
- V37S — within error, 0.137 ± 0.079
- V37T — within error, 0.091 ± 0.1
- V37C — within error, -0.126 ± 0.2
- V37H — within error, -0.086 ± 0.3
- V37A — within error, 0.01 ± 0.076
- I32N — within error, -0.101 ± 0.22
- I32G — within error, 0.063 ± 0.062
- I32M — within error, 0.02 ± 0.28
- I32W — within error, 0.067 ± 0.15
- I32Q — lower, -0.251 ± 0.19
- I32E — within error, -0.201 ± 0.32
- I32T — within error, -0.037 ± 0.1
- I32D — within error, -0.346 ± 0.39
- I32R — within error, -0.062 ± 0.085
- I32P — within error, -0.003 ± 0.12
- I32K — lower, -0.235 ± 0.16
- I32S — within error, -0.007 ± 0.08
- I32L — within error, 0.119 ± 0.093
- I32V — within error, 0.127 ± 0.12
- I32F — within error, -0.001 ± 0.13
- I32A — within error, -0.11 ± 0.08
- I32C — within error, 0.032 ± 0.12
- I32Y — within error, 0.325 ± 0.48
- N30I — within error, 0.187 ± 0.21
- N30A — within error, 0.028 ± 0.11
- N30V — within error, 0.143 ± 0.045
- N30R — within error, 0.024 ± 0.08
- N30D — within error, 0.018 ± 0.18
- N30K — within error, 0.107 ± 0.14
- N30W — within error, -0.036 ± 0.087
- N30T — within error, 0.038 ± 0.18
- N30M — within error, -0.051 ± 0.15
- N30Y — within error, -0.1 ± 0.18
- N30H — within error, -0.081 ± 0.27
- N30G — within error, 0.054 ± 0.071
- N30L — within error, -0.122 ± 0.084
- N30E — within error, 0.092 ± 0.16
- L35S — within error, -0.035 ± 0.097
- L35H — lower, -0.535 ± 0.36
- L35G — within error, 0.035 ± 0.087
- L35W — lower, -0.552 ± 0.1
- L35P — lower, -1 ± 0.21
- L35N — within error, -0.156 ± 0.17
- L35Y — within error, -0.249 ± 0.26
- L35Q — within error, -0.01 ± 0.14
- L35V — within error, 0.048 ± 0.093
- L35T — within error, -0.034 ± 0.12
- L35E — lower, -1.08 ± 0.33
- L35R — lower, -0.863 ± 0.18
- L35M — within error, -0.036 ± 0.22
- L35I — within error, 0.231 ± 0.38
- L35F — within error, 0.148 ± 0.1
- L35A — within error, 0.024 ± 0.066
- E39M — within error, -0.054 ± 0.18
- E39A — within error, 0.074 ± 0.079
- E39P — lower, -0.78 ± 0.18
- E39W — lower, -0.176 ± 0.1
- E39C — within error, -0.156 ± 0.12
- E39K — within error, -0.065 ± 0.14
- E39R — within error, 0.016 ± 0.069
- E39H — within error, 0.165 ± 0.24
- E39I — within error, -0.03 ± 0.22
- E39F — within error, -0.262 ± 0.31
- E39L — within error, -0.061 ± 0.079
- E39G — within error, 0.084 ± 0.075
- E39S — within error, -0.024 ± 0.077
- E39D — within error, -0.039 ± 0.17
- E39T — within error, 0.059 ± 0.11
- E39Q — within error, -0.084 ± 0.2
- Y50G — lower, -0.231 ± 0.059
- Y50H — within error, -0.052 ± 0.3
- Y50K — within error, -0.234 ± 0.21
- Y50I — lower, -0.658 ± 0.44
- Y50C — lower, -0.44 ± 0.24
